Read-outs that look alike come from different tables or passages of the source.
Assays:
T1SP10MN(A) (−Cys) [1] = test system: T1SP10MN(A) (−Cys)
Protocol: Animals were bled prior to initial immunization, and at indicated time points. Serum was analyzed from individual mice, or as pools from mice within groups. Vaginal lavage was performed on euthanized mice to assess antibody levels. This was accomplished by instillation of 75:1 RPMI-10 into the vaginal vault of female mice using a 200:1 pipette. The vault was washed by repeated delivery and removal of fluid, which was then added to 10:1 of FBS. Vaginal lavage were analyzed as pools.
For analysis of HIV peptide-specific antibody and subclass distribution, peptide was suspended in either carbonate buffer (15 mM Na2CO3, 35 mM NaHCO3, pH 9.6), or PBS, at a concentration of 1 μg/ml and plated to 96 well microtiter plates (Nunc) in a volume of 100:1. After overnight incubation at 37° C., plates were washed, and blocked (0.1% gelatin/PBS) at room temperature for 2-4 hours. ELISA plates were washed with wash buffer (PBS, 0.1% Tween™20) before addition of serially diluted serum (PBS, 0.1% gelatin, 0.05% Tween™20, 0.02% sodium azide). After a four hour incubation, wells were washed and appropriate dilutions of biotinylated anti-isotype/subclass antibodies were added for incubation at 4° C. overnight. Wells were washed and incubated with strepavidin-conjugated horseradish peroxidase. After incubation, wells were washed, and developed with ABTS. Wells were read at 405 nm. Titers were standardized using control sera.
Vaginal IgG and IgA anti-peptide antibody titers were measured from lavage obtained 2 weeks after final immunization. Groups of 5 Balb/c female mice were immunized with 25 μg T1SP10MN(A) (−Cys) and the indicated adjuvant formulations on days 0, 28, and 42. Vaginal antibody titers were determined from pool d lavage fluid.
HIV peptide-specific vaginal lavage endpoint reciprocal endpoint IgG and IgA antibody titers were measured from pooled serum (n=5 Balb/c) 15 days after secondary immunization. […] Aqueous MPL™ was delivered at 50 μg per dose. Recombinant murine IL-12 was delivered at 40 ng/mouse. Recombinant murine GM-CSF was delivered at 10 μg/mouse.
Vaginal IgG and IgA anti-peptide antibody titers were measured from lavage 41 days after initial immunization, 13 days after secondary immunization.

spleen cells = test: Secretion of IL-4 by spleen cells (ELISA); format: cell-based, Balb/c mice
Protocol: For proliferation assays and in vitro cytokine analysis, spleen cells were obtained from mice at the indicated time points. Single cell suspensions were prepared from pools of 3-5 mice as indicated in Results. For proliferation and cytokine analysis, cells were suspended in round bottom 96 well culture plates precoated overnight with HIV peptide antigens, control proteins, or RPMI-10 only. Spleen cells were added at 5×10^5 cells/well using culture medium having 2× supplements. Cell culture supernatants were harvested from triplicate wells for cytokine analysis three or six days after culture initiation. Immediately after supernatant harvest, cultures were pulsed with ^3H-thymidine for 18-24 hours, and harvested to quantify cell proliferation.
For cytokine analysis, cell culture supernatants were added to wells coated with BVD6-11B11 (for anti-IL4), or R4-6A2 (for interferon-gamma). After incubation and washing, wells were developed using biotin-labeled BVD6-24G2 (for IL4) or XMG 1.2 (for interferon-gamma). The concentration of cytokines was determined using a standard curve prepared from recombinant murine interferon-gamma or interleukin-4. All cytokine reagents were purchased from Pharmingen (San Diego, Calif.).
Interleukin-4 secreted into culture by spleen cells stimulated with 25 μg T1SP10MN(A) (−Cys) was measured. Spleen cells were harvested from pools of five Balb/c female mice and cultured with the indicated antigenic stimuli (50 ng IL-12, 10 μg GM-CSF, 50 μg MPL™ as indicated) for either three or six days. Interleukin-4 levels were determined by ELISA, and compared to a standard having a known concentration. Blank wells indicate that the assay could not detect Interleukin-4 from those culture conditions. The lower limit of detection sensitivity was 22 Units/ml.
Cells were cultured for a total of 96 hours. Cell culture supernatants were analyzed for IL-4 by ELISA. All values were after subtraction from those determined from supernatants of cells stimulated with 10 μg of an irrelevant protein (lysozyme). Results which were below the limit of detection, after subtraction from stimulation induced with lysozyme are indicated as “bd”. The adjuvants were 40 ng IL-12, 10 μg GM-CSF and 50 μg MPL™.

T1SP10MN(A) (−Cys) [2] = conditions: Experiment 3, 14 days after second immunization
Protocol: (§1) The protocols of Experiment 2 were followed, with Swiss-Webster mice used instead of Balb/c mice. Only reciprocal anti-peptide IgG endpoint titers and vaginal lavage endpoint reciprocal endpoint IgG and IgA antibody titers were measured in this experiment.
Reciprocal anti-T1SP10MN(A) (−Cys) IgG endpoint titers were measured from geometric means from individual Swiss-Webster mice (GMT), obtained 14 days after the second immunization. IgG1 and IgG2a subclass endpoint titers were also measured from pooled serum. For recipients of Freund's adjuvants, mice were primed with peptide emulsified in CFA, and boosted with IFA. […] Aqueous MPL™ was delivered at 50 μg per dose. Recombinant murine IL-12 was delivered at 40 ng/mouse. Recombinant murine GM-CSF was delivered at 10 μg/mouse.

T1SP10MN(A) (−Cys) [3] = conditions: Experiment 3; pooled, n=5 Swiss-Webster; 15 days after secondary immunization
Protocol: as §1
Aqueous MPL™ was delivered at 50 μg per dose. Recombinant murine IL-12 was delivered at 40 ng/mouse. Recombinant murine GM-CSF was delivered at 10 μg/mouse.

T1SP10MN(A) (−Cys) [4] = test system: T1SP10MN(A) (−Cys); remark: listed apart in the source
Protocol: Mice were immunized subcutaneously in the rump, in a total volume of 0.2 ml equally divided on each side of the tail. Immunizations were administered at varying time intervals, as indicated below. Antigen and cytokines were diluted in phosphate buffered saline to the appropriate concentrations and formulated with adjuvants less than 16 hours prior to immunization, under sterile conditions. Vaccines were mixed by gentle agitation, and stored at 4° C. Formulations were mixed by vortex immediately prior to immunization.
Reciprocal anti-HIV peptide-specific IgG endpoint titers were measured from pooled serum (n=5 Balb/c) at the indicated time points after initial immunization. Mice were immunized subcutaneously in the rump with 25 μg of T1SP10MN(A) (−Cys), unless otherwise indicated, on day 0, and on day 27. For recipients of Freund's adjuvants, mice were primed with peptide emulsified in CFA, and boosted with IFA. MPL™ SE was provided as an emulsion containing 2% squalene oil and 50 μg MPL™ per dose. SE is an oil-in-water emulsion vehicle consisting of squalene, glycerol, and an emulsifying agent. Recombinant murine IL-12 was delivered at 50 ng/mouse. Recombinant murine GM-CSF was delivered at 10 μg/mouse.
Reciprocal endpoint IgG subclass titers were measured from pooled serum (n=5 Balb/c) six weeks after initial immunization, two weeks after secondary immunization. Mice were immunized subcutaneously in the rump with 25 μg of peptide, unless otherwise indicated. For recipients of Freund's adjuvants, mice were primed with peptide emulsified in complete Freund's adjuvant, and boosted with incomplete Freund's adjuvant on weeks four and six. MPL™ SE was provided as an emulsion containing 2% squalene oil and 50 μg MPL™ per dose. SE is an oil-in-water emulsion vehicle consisting of squalene, glycerol, and an emulsifying agent. Recombinant murine IL-12 was delivered at 50 ng/mouse. Recombinant murine GM-CSF was delivered at 10 μg/mouse.
Mice were immunized subcutaneously in the rump, in a total volume of 0.2 ml equally divided on each side of the tail. Immunizations were administered on days 0 and 21 with 25 μg of the HIV peptide, together with the indicated amount of adjuvant(s).
Reciprocal anti-peptide IgG endpoint titers were measured from either geometric means from individual mice (GMT) or from pooled serum (n=5 Balb/c), obtained 14 days after the second immunization. IgG1 and IgG2a subclass endpoint titers were also measured from pooled serum.

[5] = Experiment 1, pooled lavage, 5 Balb/c, immunized days 0, 28, 42, 2 weeks after final immunization
[6] = Experiment 2, pooled, n=5 Balb/c, 15 days after secondary immunization
[7] = Experiment 4, Balb/c, day 41, 13 days after secondary immunization
[8] = Experiment 2, 96 hours culture, after subtraction of lysozyme value, bd = below limit of detection
[9] = Experiment 1, pooled serum n=5 Balb/c, 25 μg peptide s.c. day 0 and 27
[10] = Experiment 1, pooled serum n=5 Balb/c, six weeks after initial, two weeks after secondary immunization, 25 μg peptide
[11] = Experiment 2, pooled serum n=5 Balb/c, 14 days after second immunization
[12] = Experiment 4, individual Balb/c mouse, day 41, 13 days after secondary immunization (days 0 and 28)
[13] = Experiment 4, pooled serum n=5 Balb/c, day 41, 13 days after secondary immunization
[14] = Experiment 5, pooled serum n=5 Balb/c, immunized days 0 and 22, bled day 42

B1: GM-CSF: Recombinant murine granulocyte macrophage colony stimulating factor (protein, UniProt P01587 18-141, looked up)
Granulocyte-macrophage …: APTRSPITVTRPWKHVEAIKEALNLLDDMPVTLNEEVEVVSNEFSFKKLTCVQTRLKIFEQGLRGNFTKLKGALNMTASYYQTYCPPTPETDCETQVTTYADFIDSLKTFLTDIPFECKKPGQK
Vaginal lavage IgA anti-T1SP10MN(A) (−Cys) antibody titer (T1SP10MN(A) (−Cys) [1]; [5]): <20 | Vaginal lavage IgG anti-T1SP10MN(A) (−Cys) antibody titer (T1SP10MN(A) (−Cys) [1]; [5]): <20 | Vaginal lavage reciprocal anti-T1SP10MN(A) (−Cys) IgA endpoint titer (T1SP10MN(A) (−Cys) [1]; [6]): <10 | Vaginal lavage reciprocal anti-T1SP10MN(A) (−Cys) IgG endpoint titer (T1SP10MN(A) (−Cys) [1]; [6]): 26 | Vaginal lavage IgA anti-T1SP10MN(A) (−Cys) antibody titer (T1SP10MN(A) (−Cys) [1]; [7]): <10 | Vaginal lavage IgG anti-T1SP10MN(A) (−Cys) antibody titer (T1SP10MN(A) (−Cys) [1]; [7]): <10 | Secretion of IL-4, Con A 1 μg/ml (spleen cells; Experiment 1, Three Day Cultures, detection limit 22 Units/ml): 159 Units/ml | Secretion of IL-4, Con A 5 μg/ml (spleen cells; Experiment 2, 96 hours culture, after subtraction of lysozyme value): 226 pg/mL | Secretion of IL-4, HIV Peptide 1.1 μg/ml (spleen cells; [8]): 36 pg/mL | Secretion of IL-4, HIV Peptide 3.3 μg/ml (spleen cells; [8]): 9 pg/mL | Secretion of IL-4, HIV Peptide 10 μg/ml (spleen cells; [8]): bd | Reciprocal anti-HIV peptide IgG (GMT) endpoint titer (T1SP10MN(A) (−Cys) [2]; individual Swiss-Webster mice): 500 | Reciprocal anti-HIV peptide IgG1 (pool) endpoint titer (T1SP10MN(A) (−Cys) [2]; pooled serum Swiss-Webster): <1000 | Reciprocal anti-HIV peptide IgG2a (pool) endpoint titer (T1SP10MN(A) (−Cys) [2]; pooled serum Swiss-Webster): <1000 | Vaginal lavage reciprocal anti-HIV peptide IgA endpoint titer (T1SP10MN(A) (−Cys) [3]): <10 | Vaginal lavage reciprocal anti-HIV peptide IgG endpoint titer (T1SP10MN(A) (−Cys) [3]): <10 | Reciprocal anti-T1SP10MN(A) (-Cys) IgG endpoint titer, WEEK 4 (T1SP10MN(A) (−Cys) [4]; [9]): <100 | Reciprocal anti-T1SP10MN(A) (-Cys) IgG endpoint titer, WEEK 6 (T1SP10MN(A) (−Cys) [4]; [9]): 17,579 | Reciprocal anti-T1SP10MN(A) (-Cys) IgG endpoint titer, WEEK 8 (T1SP10MN(A) (−Cys) [4]; [9]): 12,537 | Reciprocal anti-T1SP10MN(A) (-Cys) IgG1 endpoint titer (T1SP10MN(A) (−Cys) [4]; [10]): 1,783 | Reciprocal anti-T1SP10MN(A) (-Cys) IgG2a endpoint titer (T1SP10MN(A) (−Cys) [4]; [10]): <100 | Reciprocal anti-T1SP10MN(A) (-Cys) IgG2b endpoint titer (T1SP10MN(A) (−Cys) [4]; [10]): <100 | Reciprocal anti-T1SP10MN(A) (−Cys) IgG (GMT) endpoint titer (T1SP10MN(A) (−Cys) [4]; Experiment 2, geometric mean of individual Balb/c mice, 14 days after second immunization): 1,756 | Reciprocal anti-T1SP10MN(A) (−Cys) IgG1 (pool) endpoint titer (T1SP10MN(A) (−Cys) [4]; [11]): 14,538 | Reciprocal anti-T1SP10MN(A) (−Cys) IgG2a (pool) endpoint titer (T1SP10MN(A) (−Cys) [4]; [11]): 4,864 | Reciprocal anti-T1SP10MN(A) (−Cys) IgG (pool) endpoint titer (T1SP10MN(A) (−Cys) [4]; Experiment 2, pooled serum n=5 Balb/c, immunized days 0 and 21, 14 days after second immunization): 27,333 | IgG serum titer specific for T1SP10MN(A) (−Cys), Mouse #1 (T1SP10MN(A) (−Cys) [4]; [12]): 50 | IgG serum titer specific for T1SP10MN(A) (−Cys), Mouse #2 (T1SP10MN(A) (−Cys) [4]; [12]): 50 | IgG serum titer specific for T1SP10MN(A) (−Cys), Mouse #3 (T1SP10MN(A) (−Cys) [4]; [12]): 50 | IgG serum titer specific for T1SP10MN(A) (−Cys), Mouse #4 (T1SP10MN(A) (−Cys) [4]; [12]): 50 | IgG serum titer specific for T1SP10MN(A) (−Cys), Mouse #5 (T1SP10MN(A) (−Cys) [4]; [12]): 50 | Geometric Mean IgG serum titer specific for T1SP10MN(A) (−Cys), GMT (T1SP10MN(A) (−Cys) [4]; Experiment 4, n=5 Balb/c, day 41, 13 days after secondary immunization): 50 | Reciprocal anti-T1SP10MN(A) (−Cys) IgG1 endpoint titer (T1SP10MN(A) (−Cys) [4]; [13]): 5,514 | Reciprocal anti-T1SP10MN(A) (−Cys) IgG2a endpoint titer (T1SP10MN(A) (−Cys) [4]; [13]): <100 | Reciprocal anti-T1SP10MN(A) (−Cys) IgG2b endpoint titer (T1SP10MN(A) (−Cys) [4]; [13]): <100 | Reciprocal anti-T1SP10MN(A) (−Cys) IgG GMT (T1SP10MN(A) (−Cys) [4]; Experiment 5, geometric mean n=5 Balb/c, immunized days 0 and 22, bled day 42): 5,133 | Reciprocal anti-T1SP10MN(A) (−Cys) IgG1 endpoint titer (T1SP10MN(A) (−Cys) [4]; [14]): 3,815 | Reciprocal anti-T1SP10MN(A) (−Cys) IgG2a endpoint titer (T1SP10MN(A) (−Cys) [4]; [14]): <1000 | Reciprocal anti-T1SP10MN(A) (−Cys) IgG2b endpoint titer (T1SP10MN(A) (−Cys) [4]; [14]): <1000 | Reciprocal anti-T1SP10MN(A) (−Cys) IgG endpoint titer (T1SP10MN(A) (−Cys) [4]; [14]): 11,639
